Results: US20200270627A1 (COMMONWEALTH SCIENTIFIC AND INDUSTRIAL RESEARCH ORGANISATION, published 2020)

T1: RGA4 1-171:CFP (rice, UniProt F7J0M4 1-171)
T1 construct: not shown: C-terminal CFP tag
T1 sequence (looked up): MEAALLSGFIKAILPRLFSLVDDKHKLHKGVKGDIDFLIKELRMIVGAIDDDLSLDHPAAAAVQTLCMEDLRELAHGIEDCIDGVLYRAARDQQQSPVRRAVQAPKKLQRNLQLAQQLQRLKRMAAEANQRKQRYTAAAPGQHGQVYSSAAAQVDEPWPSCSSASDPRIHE


Molecular target: T1, RGA4 1-171:CFP
Assay: co-immunoprecipitation with anti-GFP antibodies from N. benthamiana leaf cells, anti-HA immunoblot

| binding result | Binder |
| --- | --- |
| no binding | Sr33 1-160:HA (other, also called full CC domain of Sr33 fused to a C-terminal HA tag; not shown: C-terminal HA tag (vector pBIN19-35S::GTW:3HA)) MDIVTGAIAKLIPKLGELLVGEYKLHKGVKKNIEDLLKELKTMNAALIKIGEVPPDQLDSQDKLWADEVRELSYVIEDAVDKFLVRVHGVEPDDNTNGFKGLMKRTTKLLKKVVDKHGIAHAIKDIKKELQEVAARRDRNKFDGIASIPTEAIDPRLRAL |
| no binding | Sr50 1-163:HA (other, Transiently expressed in N. benthamiana leaf cells under the 35S promoter; also called full CC domain of Sr50 fused to a C-terminal HA tag; not shown: C-terminal HA tag (vector pBIN19-35S::GTW:3HA)) MNIVTGAMGSLIPKLGELLMDEYKLHKRIKKDVEFLKKELESMHAALIKVGEVPRDQLDRQVKLWADEVRELSYNMEDVVDKFLVRVDGDGIQQPHDNSGRFKELKNKMIGLFKKGRNHHRIADAIKEIKEQLQEVAARRDRNKVAVPNPMEPITIDPCLRAL |
